# From paper PMC8216272
# Residue numbers refer to the chain shown, from its start.
# T1: myoglobin (UniProt P02144 2-154)
# T1 sequence: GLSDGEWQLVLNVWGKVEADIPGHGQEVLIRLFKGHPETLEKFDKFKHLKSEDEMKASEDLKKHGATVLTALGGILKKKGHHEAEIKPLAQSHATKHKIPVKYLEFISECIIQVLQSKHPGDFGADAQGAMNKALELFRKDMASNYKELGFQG
# B1: N24-01 (structured_DNA)
# DNA: ACTAGAACTGATCTACAATTTAGGCCGGGTGTTGGGTGGGTAGGGTTTTCTACATCTCAGCATTCT
# B2: N24-03 (structured_DNA)
# DNA: ACTAGAACTGATCTACAATTTGGGTTGGGGGGGTTTTGGGTTTTTTTTTCTACATCTCAGCATTCT
# B3: N24-06 (structured_DNA)
# DNA: ACTAGAACTGATCTACAATTTGGGGGGGTTTTGGGGGGGTTGTTGTTTTCTACATCTCAGCATTCT
# B4: N24-04 (structured_DNA)
# DNA: B3 DNA with G33C, G34T, T40G, T41G, G42T, G45T
# B5: N24-07 (with primer sites) (structured_DNA)
# DNA: B3 DNA with G25T, G33C, G34T, G35T, G36T, T43G, T44G, G45C
# Molecular target: T1, myoglobin
# Experiment: SPR
row,Binder,Kd [nM]
1,GGGCGGGTTGGGCTGGG (structured_DNA) [PEA3-01],5.8

# Molecular target: T1, myoglobin
# Experiment: absorption spectroscopy
row,Binder,binding result
1,GGGTGGGTTTTCTTTGGGTTGGGC (structured_DNA) [N24-07 core],binds

# Molecular target: T1, myoglobin
# Experiment: aptamer blotting
row,Binder,binding result
1,B1,binds
2,B2,binds
3,B3,binds
4,B4,binds
5,B5,binds

# Molecular target: T1, myoglobin
# Experiment: aptamer blotting
# Remark: another data set of the same source
row,Binder,binding result
1,GGGTGGGTTGGGAGGG (structured_DNA) [PEA1-20],binds
2,GGGCCGGGAGGGAGGG (structured_DNA) [PEA1-19],binds
3,GGGAAGGGTTGGGAGGG (structured_DNA) [PEA1-16],binds
4,GGGTGGGAAGGGTTGGG (structured_DNA) [PEA1-06],binds
5,GGGCCGGGTTGGGTGTAGAGTGGG (structured_DNA) [PEA1-02],binds
6,GGGTGGGTTTCTTGGGAGGG (structured_DNA) [PEA1-11],binds
7,GGGTGGGAGGGAGGG (structured_DNA) [PEA1-13],binds

# Molecular target: T1, myoglobin
# Experiment: aptamer blotting
# Remark: another data set of the same source
row,Binder,binding result
1,TTTTTTTTTTTTTTTTT (ssDNA) [T17],binds

# Molecular target: T1, myoglobin
# Experiment: aptamer blotting
# Remark: another data set of the same source
row,Binder,binding result
1,GGGAAGGAGGGAGGAAGGGAGGGAGGG (structured_DNA) [aFGF-PQS20],binds
2,GGGATAGGGTTGGGCACTCACAGCTGAATGGG (structured_DNA) [PSA-PQS2],binds
3,GGGCCGGGAGGGTGCAGGG (structured_DNA) [Annexin II-PQS],binds
4,GGGTGGGGGTGGGTTTCTTGGGGTGTAAAGTGGG (structured_DNA) [HER2-PQS3],binds
